Measured values from FireProtDB.
Values joined by “and” are separate entries in the source; they are usually repeats but may differ in a detail not shown here. Equal values may be shown once.

Details: whole UniProt chain shown
[1] = Enterobacteria phage 434, pH 6, 20 °C, Urea, Fluorescence, KH2PO4 25 mM, KCl 100 mM, reversible: yes(>95%)
[2] = Enterobacteria phage 434, pH 6, 20 °C, Urea, far-UV CD, KH2PO4 25 mM, KCl 100 mM, reversible: yes(>95%)
[3] = Enterobacteria phage 434, pH 7, Thermal, DSC, K-phosphate 20 mM
[4] = Canis lupus familiaris, pH 4.5, 25 °C, GdnHCl, CD, acetate 50 mM, CaCl2 2 mM
[5] = Canis lupus familiaris, pH 4.5, Thermal, DSC, Sodium acetate/glycine-HCl 50 mM/50 mM/, transition: 3, reversible: yes
[6] = Drosophila melanogaster, pH 6.5, 25 °C, Urea, Fluorescence, sodium phosphate 20 mM
[7] = Cavia porcellus, pH 7.4, 25 °C, Urea, CD, NaPi 0.01 M, NaCl 0.15 M, reversible: Yes
[8] = Cavia porcellus, pH 7.4, Thermal, DSC, NaPi 0.01 M, NaCl 0.15 M, reversible: No
[9] = Escherichia coli (strain K12), pH 3, Thermal, CD, glycine-HCl 10 mM, NaCl 0.1 M, reversible: yes
[10] = Escherichia coli (strain K12), pH 3, Thermal, CD, glycine-HCl 10 mM, reversible: yes
[11] = Escherichia coli (strain K12), pH 5.5, Thermal, CD, Sodium acetate 5 mM, KCl 50 mM, reversible: no
[12] = Escherichia coli (strain K12), pH 5.5, Thermal, CD, Sodium acetate 20 mM, reversible: yes
[13] = Escherichia coli (strain K12), pH 8, 25 °C, GdnHCl, CD, Potassium phosphate 20 mM, KCl 50 mM, reversible: yes
[14] = Escherichia coli (strain K12), pH 8, 25 °C, GdnHCl, CD, Potassium phosphate 50 mM, KCl 50 mM, reversible: yes
[15] = Escherichia coli (strain K12), pH 8, 25 °C, Urea, CD, Potassium phosphate 20 mM, KCl 50 mM, reversible: yes
[16] = Enterobacteria phage T4, pH 8, Thermal, DSC, Tris-HCl 10 mM, NaCl 200 mM, reversible: yes
[17] = Drosophila melanogaster, pH 6, 5 °C, GdnHCl, CD, sodium phosphate 50 mM, reversible: yes
[18] = Drosophila melanogaster, pH 6, 5 °C, GdnHCl, Fluorescence, sodium phosphate 50 mM, Na2SO4 0.4 M, reversible: yes
[19] = Drosophila melanogaster, pH 6, Thermal, CD, sodium phosphate 50 mM, Na2SO4 0.4 M, reversible: yes

B1: Regulatory protein cro wild type, P03036 (protein)
chain: MQTLSERLKKRRIALKMTQTELATKAGVKQQSIQLIEAGVTKRPRFLFEIAMALNCDPVWLQYGTKRGKAA
Question: For B1, which denaturant m value [1] is on record?
Answer: 1.05 kcal/mol/M

Question: What about the “denaturant midpoint (higher = more stable)” value [1] of the same protein?
Answer: 3.35 M

Question: And the unfolding free energy [1]?
Answer: 3.5 kcal/mol

Question: What about the denaturant m value [2] of the same protein?
Answer: 1.02 kcal/mol/M

Question: What about the “denaturant midpoint (higher = more stable)” value [2] of the same protein?
Answer: 3.5 M

Question: What about the unfolding free energy [2] of the same protein?
Answer: 3.6 kcal/mol

Question: And the Tm [3]?
Answer: 46.4 °C

Question: And the “unfolding enthalpy (calorimetric)” value [3]?
Answer: 53.8 kcal/mol

B2: Lysozyme C, milk isozyme wild type, P81708 (protein)
chain: KIFSKCELARKLKSMGMDGFHGYSLANWVCMAEYESNFNTQAFNGRNSNGSSDYGIFQLNSKWWCKSNSHSSANACNIMCSKFLDDNIDDDIACAKRVVKDPNGMSAWVAWVKHCKGKDLSKYLASCNL
Question: Which denaturant m value [4] does the source give for B2 here?
Answer: 2.43 kcal/mol/M and 1 kcal/mol/M

Question: And the unfolding free energy [4]?
Answer: 2.84 kcal/mol and 5.27 kcal/mol

Question: What about the denaturant m value (Canis lupus familiaris, pH 4.5, 25 °C, GdnHCl, CD, acetate 50 mM) of the same protein?
Answer: 2.48 kcal/mol/M and 1 kcal/mol/M

Question: What about the Tm [5] of the same protein?
Answer: 39 °C

Question: And the “unfolding enthalpy (calorimetric)” value [5]?
Answer: 44.6 kcal/mol

B3: Lysozyme C wild type, P00708 (protein)
chain: KDIPRCELVKILRRHGFEGFVGKTVANWVCLVKHESGYRTTAFNNNGPNSRDYGIFQINSKYWCNDGKTRGSKNACNINCSKLRDDNIADDIQCAKKIAREARGLTPWVAWKKYCQGKDLSSYVRGC
Question: Which Tm (Columba livia, pH 6, Thermal, CD, MES 50 mM, potassium chloride 100 mM, transition: 3) does the source give for B3 here?
Answer: 70 °C

B4: General odorant-binding protein lush wild type, O02372 (protein)
chain: MKHWKRRSSAVFAIVLQVLVLLLPDPAVAMTMEQFLTSLDMIRSGCAPKFKLKTEDLDRLRVGDFNFPPSQDLMCYTKCVSLMAGTVNKKGEFNAPKALAQLPHLVPPEMMEMSRKSVEACRDTHKQFKESCERVYQTAKCFSENADGQFMWP
Question: Which results are given for B4?
Answer: denaturant m value [6]: 1.24 kcal/mol/M and 1.76 kcal/mol/M and 1.77 kcal/mol/M; denaturant midpoint (higher = more stable) [6]: 2.39 M and 2.98 M and 4.11 M; unfolding free energy [6]: 3.02 kcal/mol and 5.26 kcal/mol and 7.35 kcal/mol

B5: wild type, Q8VD40 (protein)
chain: MDGDGDPESVGQPEEVSPEEACAEEACAEGDRPGEEEEEEQEELEEAAYLAELPEALLLRVLAQLPAAELVQACRLVCLRWKELVDGAPLWLLKCQQEGLVPEGCGEEEERDHWQRFYFLSKRRRNLLRNPCGEEDLEGWCDVEHGGDGWRVEEIPGDSGVEFPQDDSVRKYFASSFEWCRKAQVVDLQAEGYWEELLDTTQPAIVAKDWYSGRSDAGCLYELSVKLLSEHEDVLAEFNTGQVPVSPDSEEGGWTEISHTFTDYGPGVRFVRFEHGGQDAVYWKGWFGARVTNSSVWVEP
Question: Which denaturant m value [7] does the source give for B5 here?
Answer: 0.79 kcal/mol/M

Question: What about the unfolding free energy [7] of the same protein?
Answer: 2.64 kcal/mol

Question: And the Tm [8]?
Answer: 57 °C

Question: What about the “unfolding enthalpy (calorimetric)” value [8] of the same protein?
Answer: 141 kcal/mol

B6: Ribonuclease HI wild type, P0A7Y4 (protein)
chain: MLKQVEIFTDGSCLGNPGPGGYGAILRYRGREKTFSAGYTRTTNNRMELMAAIVALEALKEHCEVILSTDSQYVRQGITQWIHNWKKRGWKTADKKPVKNVDLWQRLDAALGQHQIKWEWVKGHAGHPENERCDELARAAAMNPTLEDTGYQVEV
Question: Which results are given for B6?
Answer: Tm (Escherichia coli (strain K12), pH 3, Thermal, CD, Gly-HCl buffer 10 mM, NaCl 0.1 M, reversible: yes): 49.8 °C; Tm [9]: 50.1 °C; unfolding enthalpy (van 't Hoff) [9]: 113 kcal/mol; Tm [10]: 49.8 °C; unfolding enthalpy (van 't Hoff) [10]: 98.1 kcal/mol; Tm [11]: 66 °C; heat capacity change of unfolding [11]: 2.7 kcal/mol/K; unfolding enthalpy (van 't Hoff) [11]: 120 kcal/mol; Tm [12]: 52 °C; unfolding enthalpy (van 't Hoff) [12]: 89 kcal/mol; Tm (Escherichia coli (strain K12), pH 5.5, Thermal, CD, sodium acetate 20 mM, NaCl 0.1 M, reversible: yes): 52 °C; denaturant midpoint (higher = more stable) [13]: 1.6 M; unfolding free energy [13]: 7.2 kcal/mol; denaturant midpoint (higher = more stable) [14]: 1.18 M; unfolding free energy [14]: 3.95 kcal/mol; denaturant midpoint (higher = more stable) [15]: 3.84 M; unfolding free energy [15]: 7.4 kcal/mol; Tm (Escherichia coli (strain K12), pH 8, Thermal, CD, Potassium phosphate 20 mM, KCl 50 mM, reversible: yes): 55 °C

B7: Single-stranded DNA-binding protein wild type, P03695 (protein)
chain: MFKRKSTAELAAQMAKLNGNKGFSSEDKGEWKLKLDNAGNGQAVIRFLPSKNDEQAPFAILVNHGFKKNGKWYIETCSSTHGDYDSCPVCQYISKNDLYNTDNKEYSLVKRKTSYWANILVVKDPAAPENEGKVFKYRFGKKIWDKINAMIAVDVEMGETPVDVTCPWEGANFVLKVKQVSGFSNYDESKFLNQSAIPNIDDESFQKELFEQMVDLSEMTSKDKFKSFEELNTKFGQVMGTAVMGGAAATAAKKADKVADDLDAFNVDDFNTKTEDDFMSSSSGSSSSADDTDLDDLLNDL
Question: With B7 as the protein, how does the Tm [16] read?
Answer: 49 °C

Question: What about the “unfolding enthalpy (calorimetric)” value [16] of the same protein?
Answer: 84 kcal/mol

B8: Growth factor receptor-bound protein 2 wild type, Q08012 (protein)
chain: MEAIAKHDFSATADDELSFRKTQILKILNMEDDSNWYRAELDGKEGLIPSNYIEMKNHDWYYGRITRADAEKLLSNKHEGAFLIRISESSPGDFSLSVKCPDGVQHFKVLRDAQSKFFLWVVKFNSLNELVEYHRTASVSRSQDVKLRDMIPEEMLVQALYDFVPQESGELDFRRGDVITVTDRSDENWWNGEIGNRKGIFPATYVTPYHS
Question: Which denaturant m value [17] does the source give for B8 here?
Answer: 3.48 kcal/mol/M

Question: And the unfolding free energy [17]?
Answer: 1.47 kcal/mol

Question: What about the denaturant m value [18] of the same protein?
Answer: 1.39 kcal/mol/M

Question: And the unfolding free energy [18]?
Answer: 2.18 kcal/mol

Question: And the Tm [19]?
Answer: 60.1 °C

Question: What about the “unfolding enthalpy (van 't Hoff)” value [19] of the same protein?
Answer: 33.1 kcal/mol
